Measured values: PMC5365074 (Nature structural & molecular biology, 2017)

Biological target: T1, FLAG-IFNAR2 (human, UniProt P48551 27-515)
T1 sequence: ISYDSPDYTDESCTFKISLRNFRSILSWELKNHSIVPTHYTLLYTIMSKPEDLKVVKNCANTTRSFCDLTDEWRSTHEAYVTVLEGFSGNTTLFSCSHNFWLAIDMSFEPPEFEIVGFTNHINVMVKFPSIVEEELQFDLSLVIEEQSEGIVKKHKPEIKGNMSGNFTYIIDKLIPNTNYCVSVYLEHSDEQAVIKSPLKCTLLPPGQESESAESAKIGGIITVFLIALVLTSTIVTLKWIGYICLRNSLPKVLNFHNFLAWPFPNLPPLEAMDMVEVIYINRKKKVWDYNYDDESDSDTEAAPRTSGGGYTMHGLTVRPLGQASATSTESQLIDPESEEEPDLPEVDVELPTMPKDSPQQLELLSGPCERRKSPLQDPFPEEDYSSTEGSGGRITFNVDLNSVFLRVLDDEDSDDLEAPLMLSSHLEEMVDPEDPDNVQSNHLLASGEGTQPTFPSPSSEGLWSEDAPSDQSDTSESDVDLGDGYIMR
Assay: co-IP

B1: USP18 (no tag named), expressed in U6A cells (enzyme)
chain: MSKAFGLLRQICQSILAESSQSPADLEEKKEEDSNMKREQPRERPRAWDYPHGLVGLHNIGQTCCLNSLIQVFVMNVDFTRILKRITVPRGADEQRRSVPFQMLLLLEKMQDSRQKAVRPLELAYCLQKCNVPLFVQHDAAQLYLKLWNLIKDQITDVHLVERLQALYTIRVKDSLICVDCAMESSRNSSMLTLPLSLFDVDSKPLKTLEDALHCFFQPRELSSKSKCFCENCGKKTRGKQVLKLTHLPQTLTIHLMRFSIRNSQTRKICHSLYFPQSLDFSQILPMKRESCDAEEQSGGQYELFAVIAHVGMADSGHYCVYIRNAVDGKWFCFNDSNICLVSWEDIQCTYGNPNYHWQETAYLLVYMKMEC
Question: For B1, which “fold enhancement of the co-precipitation upon expression of STAT2” value is on record?
Answer: The value was no more than 10 fold.
